US20250333501A1 (University of California, published 2025)

Tests used:
[1] = target: T1, CLDN6 endogenously expressed by human cancer cell lines (ARK2, OVCA429) (human, UniProt P56747 1-220); experiment: FACS, AF647-labelled mAb, ARK2 cells
T1 construct: Untagged endogenous protein; also called Endogenous CLDN6+
T1 sequence: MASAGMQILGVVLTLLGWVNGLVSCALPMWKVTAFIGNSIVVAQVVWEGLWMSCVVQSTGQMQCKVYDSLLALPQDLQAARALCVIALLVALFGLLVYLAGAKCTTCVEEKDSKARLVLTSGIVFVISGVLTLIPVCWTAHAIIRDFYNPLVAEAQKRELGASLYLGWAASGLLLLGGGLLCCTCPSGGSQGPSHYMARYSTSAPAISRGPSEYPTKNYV
Experimental: (§1) Antibodies were purified and cell surface binding of the antibodies to CLDN6 and the antibody IC₅₀ were determined by FACS in which CLDN6 antibodies were directly conjugated with Alexa Fluor® 647 NHS Ester (Succinimidyl Ester), Cat #A20106 (ThermoFisher Scientific) following the manufacturer's protocol. CLDN6 antibodies were tested from 0.32 nM to 1000 nM (serial dilution 1:5, 6 points) in a 50 μl volume with 150,000 cells system.
(§2) CLDN6-expressing cells were used in FACS assays to determine the CLDN6 antibody's ability to bind to CLDN6 on the surface of cells and to cross-react with other CLDN family members. HEK293 T cells engineered to express human CLDN6 fused to GFP, mouse CLDN6 fused to GFP, CLDN9-GFP, CLDN4-GFP, or CLDN3-GFP, or GFP alone (without CLDN6) were used as artificial models of CLDN6 expression. ARK2, OVCA429, LS513 and MCF7 cells were used as endogenous models of CLDN6 expression, as well as models for CLDN3/4 expression.
(§3) For each type of cell tested and for each mAb, cells were detached from the surface of the culture flasks by EDTA (instead of trypsin) in order to protect the cell surface proteins. The detached cells were then incubated with Alexa Fluor®-labeled CLDN6 mAbs for 30 min in the dark on ice at a pre-determined concentration. The CLDN6 mAbs were directly labeled with Alexa Fluor® 647 NHS Ester (Succinimidyl Ester). After washing, the cells were read by a BD Accuri™ Flow Cytometer C6 to detect antibody-antigen protein binding in channel FL4H. Each antibody was tested at varied concentrations to establish a dose-fluorescence curve. The EC50/IC50 of the antibodies (the concentration of the antibody at which half the max value were calculated based on the values of FL4H (gated in viable singlet cells) using the Very Simple IC50 Tool kit available online which allows biological dose-response data to be plotted and fitted to curve types to give the EC50/IC50. The max value was the lowest concentration of the antibody at which fluorescence maxes out. The antibodies were also screened for their ability to cross-react with other CLDN proteins such as CLDN9, CLDN3, and CLDN4. These values were used to determine each antibody's relative affinity among the set of antibodies tested. Cross-reactivity data were obtained using a similar methodology, but with cells having a different expression profile for CLDN6, CLDN3, CLDN4 and CLDN9.

[2] = target: T1, CLDN6 endogenously expressed by human …; experiment: FACS, AF647-labelled mAb, OVCA429 cells
Experimental: as §1, §2, §3

[3] = target: T2, human CLDN6 fused to GFP, expressed on engineered HEK293T cells (HEK293T-CLDN6-mGFP) (human, UniProt P56747 1-220); experiment: FACS, AF647-labelled mAb, HEK293T-CLDN6-mGFP cells
T2 construct: It calls residues 1-21 a signal peptide; also called Claudin-6; HEK293T-CLDN6-mGFP Artificial CLDN6+; not shown: mGFP tag
T2 sequence: T1 sequence
Experimental: as §1, §2, §3

[4] = target: T1, CLDN6 endogenously expressed by human …; experiment: FACS, 0.3 µg Ab, ARK2 cells
Experimental: (§4) FACS assays were also carried out to determine relative antigen binding strengths of the humanized antibodies (at either 1.5 μg or 0.3 μg) for binding to CLDN6 as expressed by the indicated cancer cell lines. 2nd Ab only was used as a negative control.

[5] = target: T1, CLDN6 endogenously expressed by human …; experiment: FACS, 1.5 µg Ab, ARK2 cells
Experimental: as §4

[6] = target: T1, CLDN6 endogenously expressed by human …; experiment: FACS, 1.5 µg Ab, OVCA429 cells
[7] = target: T2, human CLDN6 fused to GFP, expressed on …; experiment: FACS, 0.3 µg Ab, 293T clone with human CLDN6
Outline: (§5)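 Humanized antibodies were tested by flow cytometry, essentially as in the source's direct-binding protocol, on engineered 293T clones expressing human CLDN6. Each antibody was used at 0.3 µg or 1.5 µg. In that protocol, EDTA-detached cells were incubated with Alexa Fluor 647 NHS ester-labelled antibody for 30 min on ice in the dark, washed and read on a BD Accuri C6 in channel FL4H. Fluorescence gives relative antigen binding strength.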

[8] = target: T2, human CLDN6 fused to GFP, expressed on …; experiment: FACS, 1.5 µg Ab, 293T clone with human CLDN6
Outline: as §5

[9] = target: T3, mouse CLDN6 fused to GFP, expressed on engineered HEK293T cells (mouse, UniProt Q9Z262 1-219); experiment: FACS, 293T clone with mouse CLDN6, dose not given
T3 construct: whole, on cells; also called HEK293T-CLDN6-mGFP Artificial CLDN6+ (mouse); murine CLDN6; not shown: GFP tag
T3 sequence (looked up): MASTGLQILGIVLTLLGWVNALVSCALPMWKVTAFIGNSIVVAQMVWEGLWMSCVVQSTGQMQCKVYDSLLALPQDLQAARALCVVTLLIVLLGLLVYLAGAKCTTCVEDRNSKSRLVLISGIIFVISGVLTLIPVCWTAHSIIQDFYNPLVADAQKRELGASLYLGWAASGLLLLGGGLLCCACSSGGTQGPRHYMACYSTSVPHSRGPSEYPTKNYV
Experimental: Humanized antibodies described in Table 8 were constructed and expressed as essentially described in Example 5. FACS assays were carried out as essentially described in Example 5 to determine relative antigen binding strengths of the humanized antibodies. Two doses (1.5 μg or 0.3 μg) of the humanized antibodies were tested for binding to either human CLDN6 or murine CLDN6 which proteins were expressed by engineered 293T clones.

B1: AB18 (antibody, V domains shown)
VH: QVQLKQSGPELEKPGASVKISCKASGYSFTGYNMNWVKQSNGKSLEWIGNIDPYYGGSTYNQKFTGKATLTVDKSSSTAYMQLKSLTSEDSAVYYCARERSGYVFSAMDYWGQGTSVTVSS
VL: NIMMTQSPSSLAVSAGEKVTMSCKSSQSVLFSSNQKNYLAWYQQKPGQSPRLLIYWASTRESGVPDRFTGSGSGTDFTLTISNVQAEDLAVYYCHQYLSSRTFGAGTKLELK
notes: Labelled with Alexa Fluor 647 NHS ester for FACS
EC50 [1]: 1.35 µM
EC50 [2]: 2.44 µM
EC50 [3]: ≥ 5 µM

B2: AB4-chim (antibody, V domains shown)
VH: QVQLQQSGAELARPGASVKMSCKASGYTFTSYTMHWIKQRPGQGQEWIGYINPSSTYTHYIKKFKDKATLTADKSSSTAYMQLRSLTSEDSAVYYCSRGELGGFAYWGQGTLVTVSA
VL: DVVMTQTPLSLPVSLGDQASISCRSSQSLVHSDGNTYLNWYLQKPGQSPKLLIYKVSNRFSGVPDRFSGSGSGTDFTLKIRRVEAEDLGVYFCSQSTHVPYTFGGGTKLEIK
notes: 'chim' is the pre-humanized form (parental variable regions); also called pre-humanized (chimeric) form of AB4
FACS fluorescence [4]: 19100
FACS fluorescence [5]: 38400
FACS fluorescence [6]: 64800
FACS fluorescence [7]: 176000
FACS fluorescence [8]: 327000
FACS fluorescence [9]: 3640
